How the values were obtained:
SKP2 = SKP2 (UniProt Q13309); assay: anti-Flag co-IP, immunoblot; settings: reference: wild type; sites S121
[1] = target: T1, Flag-SKP2 (Flag-tagged S phase kinase-associated protein 2) (UniProt Q13309 1-424); assay: pull-down; in vitro GST pulldown; GST-AES fragments and CK1ε-His purified from E. coli, Flag-SKP2 purified from HEK293T cells; with 1 mM ATP; Flag-SKP2 detected with anti-SKP2 antibody; settings: both partners purified
T1 construct: S phase kinase-associated protein 2 (SKP2); source: HEK293T, transfected, in lysate; also purified from HEK293T cells transfected with the Flag-SKP2 plasmid
T1 sequence (Q13309 whole entry, the tested form may be a part): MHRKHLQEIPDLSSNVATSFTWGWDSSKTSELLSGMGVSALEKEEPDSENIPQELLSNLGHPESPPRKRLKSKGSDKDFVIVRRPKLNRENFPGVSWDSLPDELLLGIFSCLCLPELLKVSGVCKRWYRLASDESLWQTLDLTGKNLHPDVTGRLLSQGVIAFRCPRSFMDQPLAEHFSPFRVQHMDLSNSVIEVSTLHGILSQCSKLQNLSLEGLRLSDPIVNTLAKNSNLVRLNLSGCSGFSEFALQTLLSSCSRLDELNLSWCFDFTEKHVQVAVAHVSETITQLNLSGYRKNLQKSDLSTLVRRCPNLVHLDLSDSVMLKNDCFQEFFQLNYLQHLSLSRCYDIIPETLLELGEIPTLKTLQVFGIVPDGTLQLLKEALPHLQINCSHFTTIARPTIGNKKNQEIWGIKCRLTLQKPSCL

| binding against the reference (SKP2) | Molecule | binding result [1] |
| --- | --- | --- |
| lost | AES (amino-terminal enhancer of split) (from UniProt Q08117) S121A | – |
| – | GST-AES, full length, phosphorylated by CK1ε-His (natural protein, human, UniProt Q08117 1-197, looked up, phosphorylated in vitro by CK1ε-His with 1 mM ATP; the paper maps the CK1δ/ε site to Ser121, Amino-terminal enhancer of split (AES), human, full length; Same chain as m14, after the kinase reaction in the pull-down; also called full-length AES (with CK1ε-His and ATP); source: E. coli, purified; incubated with CK1ε-His and 1 mM ATP; not shown: GST, N-terminal, kept) MMFPQSRHSGSSHLPQQLKFTTSDSCDRIKDEFQLLQAQYHSLKLECDKLASEKSEMQRHYVMYYEMSYGLNIEMHKQAEIVKRLNGICAQVLPYLSQEHQQQVLGAIERAKQVTAPELNSIIRQQLQAHQLSQLQALALPLTPLPVGLQPPSLPAVSAGTGLLSLSALGSQAHLSKEDKNGHDGDTHQEDDGEKSD | binds |
